Measurements taken from patent publication US20150239981A1 (Hoffmann-La Roche, published 2015).
Blank lines part the entries; values can stand above or below the binder they belong to.

How the values were obtained:
FcγRI = biological target: T1, FcγRI (human, UniProt P12314 16-288, limits assumed); assay: SPR Biacore, FIG. 1b
T1 construct: also called FcγR1; FcγRI receptor
Description: (§1) Binding affinities of different FcγRs towards immunoglobulins were measured by Surface Plasmon Resonance (SPR) using a Biacore T100 instrument (GE Healthcare) at 25° C.

FcγRIIIA-V158 = biological target: T2, FcγRIIIA-V158 (human, UniProt P08637 17-208, limits assumed); assay: SPR Biacore, antibody immobilised, receptor as analyte, FIG. 1e
T2 construct: Soluble analyte in SPR, 0 to 12800 nM; construct not described; also called FcγRIIIA receptor
T2 sequence (P08637 17-208 F176V limits assumed): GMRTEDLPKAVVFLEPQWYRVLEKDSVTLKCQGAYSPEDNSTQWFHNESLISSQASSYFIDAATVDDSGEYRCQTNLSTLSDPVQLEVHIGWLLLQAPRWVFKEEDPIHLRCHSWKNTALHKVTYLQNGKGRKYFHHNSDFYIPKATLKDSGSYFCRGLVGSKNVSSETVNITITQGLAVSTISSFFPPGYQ
Description: as §1

T1 sequence (P12314 16-288 limits assumed): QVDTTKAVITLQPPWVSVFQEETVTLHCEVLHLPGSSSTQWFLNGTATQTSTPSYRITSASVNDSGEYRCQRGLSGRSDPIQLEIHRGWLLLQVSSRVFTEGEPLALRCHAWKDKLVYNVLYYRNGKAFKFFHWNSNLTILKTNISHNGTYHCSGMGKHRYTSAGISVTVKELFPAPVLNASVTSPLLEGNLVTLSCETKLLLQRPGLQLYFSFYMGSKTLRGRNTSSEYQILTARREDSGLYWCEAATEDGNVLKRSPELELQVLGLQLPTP

- binding result (FcγRI): binds
- binding result (FcγRIIIA-V158): binds
B1: CD9 antibody IgG1-LALA (mAb 40A746.2.3) (antibody)
heavy: not shown
light: DIQMTQTTSSLSASLGDRVTISCSASQGISNYLNWYQQKPDGNVKLLIYYTSSLHSGVPSRFSGSGSGTDYSLTISNLEPEDIATYYCQQYSKLPYTFGGGTKLEIKRTVAAPSVFIFPPSDEQLKSGTASVVCLLNNFYPREAKVQWKVDNALQSGNSQESVTEQDSKDSTYSLSSTLTLSKADYEKHKVYACEVTHQGLSSPVTKSFNRGEC
notes: also called chim-hu-IgG1-LALA

- binding result (FcγRI): binds
- binding result (FcγRIIIA-V158): binds
B2: CD9 antibody IgG4-SPLE (mAb 40A746.2.3) (antibody)
heavy: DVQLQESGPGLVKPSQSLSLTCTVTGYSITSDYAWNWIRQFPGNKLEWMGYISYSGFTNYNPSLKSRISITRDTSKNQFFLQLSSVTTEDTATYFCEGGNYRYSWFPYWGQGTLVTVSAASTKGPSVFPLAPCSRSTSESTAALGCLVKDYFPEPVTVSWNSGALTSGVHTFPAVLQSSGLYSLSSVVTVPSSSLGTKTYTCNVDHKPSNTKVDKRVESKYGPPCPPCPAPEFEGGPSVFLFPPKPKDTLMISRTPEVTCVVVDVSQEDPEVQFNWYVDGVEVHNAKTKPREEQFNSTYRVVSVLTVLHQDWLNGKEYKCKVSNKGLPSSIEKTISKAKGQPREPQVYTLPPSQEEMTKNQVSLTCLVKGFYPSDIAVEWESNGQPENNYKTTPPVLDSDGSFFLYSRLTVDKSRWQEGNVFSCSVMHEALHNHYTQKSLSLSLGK
light: B1 light
notes: also called chim-hu-IgG4-SPLE

- binding result (FcγRI): binds
B3: CD9 antibody IgG1-P329G (mAb 40A746.2.3) (antibody)
heavy: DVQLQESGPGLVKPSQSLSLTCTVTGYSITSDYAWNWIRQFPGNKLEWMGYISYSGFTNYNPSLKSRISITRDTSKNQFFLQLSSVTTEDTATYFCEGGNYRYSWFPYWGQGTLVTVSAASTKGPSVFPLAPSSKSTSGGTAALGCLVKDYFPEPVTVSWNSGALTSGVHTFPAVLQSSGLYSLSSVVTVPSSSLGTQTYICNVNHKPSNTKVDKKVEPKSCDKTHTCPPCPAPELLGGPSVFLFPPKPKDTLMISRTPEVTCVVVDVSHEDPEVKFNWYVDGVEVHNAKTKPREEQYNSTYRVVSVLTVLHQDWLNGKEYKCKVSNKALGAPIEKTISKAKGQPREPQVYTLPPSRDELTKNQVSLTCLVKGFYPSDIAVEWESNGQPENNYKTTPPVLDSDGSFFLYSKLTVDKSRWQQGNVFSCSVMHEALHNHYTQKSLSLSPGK
light: B1 light
notes: also called chim-hu-IgG-WT-P329G; TA IgG1 P329G
